These are literature values, as cited in article PMC3901638.

The target of the data set is PEDF-R (Homo sapiens) (UniProt Q96AD5). The data set is described as follows: Surface Plasmon Resonance.
Chain of UniProt Q96AD5 (Q96AD5 whole entry): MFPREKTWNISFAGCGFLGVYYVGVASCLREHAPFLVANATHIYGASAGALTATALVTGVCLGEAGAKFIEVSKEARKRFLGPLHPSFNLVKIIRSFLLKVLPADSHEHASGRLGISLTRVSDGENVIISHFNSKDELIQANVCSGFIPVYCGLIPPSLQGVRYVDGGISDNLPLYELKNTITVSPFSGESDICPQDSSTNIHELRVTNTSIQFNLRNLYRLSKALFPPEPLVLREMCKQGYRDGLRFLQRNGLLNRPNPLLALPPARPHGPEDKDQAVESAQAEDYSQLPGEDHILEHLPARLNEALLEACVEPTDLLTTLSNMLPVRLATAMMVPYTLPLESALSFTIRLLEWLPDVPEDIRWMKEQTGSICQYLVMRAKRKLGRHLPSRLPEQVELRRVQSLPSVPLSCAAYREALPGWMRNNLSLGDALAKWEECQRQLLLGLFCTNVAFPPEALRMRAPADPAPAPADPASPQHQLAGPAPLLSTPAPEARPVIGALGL

A word on the Kd: it is the constant that tells how readily two partners part at equilibrium. PEDF (from UniProt P36955): the Kd is 3 nM.
